Two substances from article PMC4328881 can be followed below.

The Kd is the constant that tells how readily two partners part at equilibrium.

Experiment [1] concerns the target 22 kDa (196 amino acids) OSM (human) (UniProt P13725). Put plainly: SPR. On the technique in general: Surface plasmon resonance follows binding to a sensor surface in real time, without labels.
In experiment [2] the target is full-length 26 kDa (227 amino acids) OSM (human). Nature of the experiment: SPR.

22 kDa (196 amino acids) OSM (human), sequence (P13725 26-221): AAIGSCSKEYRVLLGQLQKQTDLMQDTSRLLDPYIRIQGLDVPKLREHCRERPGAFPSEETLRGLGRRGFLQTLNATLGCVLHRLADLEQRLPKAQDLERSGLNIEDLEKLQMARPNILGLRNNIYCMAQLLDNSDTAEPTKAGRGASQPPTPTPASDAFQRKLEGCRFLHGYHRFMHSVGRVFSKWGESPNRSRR
fibronectin, P02751 32-2477 (natural protein; ; other documents disagree on this pair), sequence (P02751 32-2477): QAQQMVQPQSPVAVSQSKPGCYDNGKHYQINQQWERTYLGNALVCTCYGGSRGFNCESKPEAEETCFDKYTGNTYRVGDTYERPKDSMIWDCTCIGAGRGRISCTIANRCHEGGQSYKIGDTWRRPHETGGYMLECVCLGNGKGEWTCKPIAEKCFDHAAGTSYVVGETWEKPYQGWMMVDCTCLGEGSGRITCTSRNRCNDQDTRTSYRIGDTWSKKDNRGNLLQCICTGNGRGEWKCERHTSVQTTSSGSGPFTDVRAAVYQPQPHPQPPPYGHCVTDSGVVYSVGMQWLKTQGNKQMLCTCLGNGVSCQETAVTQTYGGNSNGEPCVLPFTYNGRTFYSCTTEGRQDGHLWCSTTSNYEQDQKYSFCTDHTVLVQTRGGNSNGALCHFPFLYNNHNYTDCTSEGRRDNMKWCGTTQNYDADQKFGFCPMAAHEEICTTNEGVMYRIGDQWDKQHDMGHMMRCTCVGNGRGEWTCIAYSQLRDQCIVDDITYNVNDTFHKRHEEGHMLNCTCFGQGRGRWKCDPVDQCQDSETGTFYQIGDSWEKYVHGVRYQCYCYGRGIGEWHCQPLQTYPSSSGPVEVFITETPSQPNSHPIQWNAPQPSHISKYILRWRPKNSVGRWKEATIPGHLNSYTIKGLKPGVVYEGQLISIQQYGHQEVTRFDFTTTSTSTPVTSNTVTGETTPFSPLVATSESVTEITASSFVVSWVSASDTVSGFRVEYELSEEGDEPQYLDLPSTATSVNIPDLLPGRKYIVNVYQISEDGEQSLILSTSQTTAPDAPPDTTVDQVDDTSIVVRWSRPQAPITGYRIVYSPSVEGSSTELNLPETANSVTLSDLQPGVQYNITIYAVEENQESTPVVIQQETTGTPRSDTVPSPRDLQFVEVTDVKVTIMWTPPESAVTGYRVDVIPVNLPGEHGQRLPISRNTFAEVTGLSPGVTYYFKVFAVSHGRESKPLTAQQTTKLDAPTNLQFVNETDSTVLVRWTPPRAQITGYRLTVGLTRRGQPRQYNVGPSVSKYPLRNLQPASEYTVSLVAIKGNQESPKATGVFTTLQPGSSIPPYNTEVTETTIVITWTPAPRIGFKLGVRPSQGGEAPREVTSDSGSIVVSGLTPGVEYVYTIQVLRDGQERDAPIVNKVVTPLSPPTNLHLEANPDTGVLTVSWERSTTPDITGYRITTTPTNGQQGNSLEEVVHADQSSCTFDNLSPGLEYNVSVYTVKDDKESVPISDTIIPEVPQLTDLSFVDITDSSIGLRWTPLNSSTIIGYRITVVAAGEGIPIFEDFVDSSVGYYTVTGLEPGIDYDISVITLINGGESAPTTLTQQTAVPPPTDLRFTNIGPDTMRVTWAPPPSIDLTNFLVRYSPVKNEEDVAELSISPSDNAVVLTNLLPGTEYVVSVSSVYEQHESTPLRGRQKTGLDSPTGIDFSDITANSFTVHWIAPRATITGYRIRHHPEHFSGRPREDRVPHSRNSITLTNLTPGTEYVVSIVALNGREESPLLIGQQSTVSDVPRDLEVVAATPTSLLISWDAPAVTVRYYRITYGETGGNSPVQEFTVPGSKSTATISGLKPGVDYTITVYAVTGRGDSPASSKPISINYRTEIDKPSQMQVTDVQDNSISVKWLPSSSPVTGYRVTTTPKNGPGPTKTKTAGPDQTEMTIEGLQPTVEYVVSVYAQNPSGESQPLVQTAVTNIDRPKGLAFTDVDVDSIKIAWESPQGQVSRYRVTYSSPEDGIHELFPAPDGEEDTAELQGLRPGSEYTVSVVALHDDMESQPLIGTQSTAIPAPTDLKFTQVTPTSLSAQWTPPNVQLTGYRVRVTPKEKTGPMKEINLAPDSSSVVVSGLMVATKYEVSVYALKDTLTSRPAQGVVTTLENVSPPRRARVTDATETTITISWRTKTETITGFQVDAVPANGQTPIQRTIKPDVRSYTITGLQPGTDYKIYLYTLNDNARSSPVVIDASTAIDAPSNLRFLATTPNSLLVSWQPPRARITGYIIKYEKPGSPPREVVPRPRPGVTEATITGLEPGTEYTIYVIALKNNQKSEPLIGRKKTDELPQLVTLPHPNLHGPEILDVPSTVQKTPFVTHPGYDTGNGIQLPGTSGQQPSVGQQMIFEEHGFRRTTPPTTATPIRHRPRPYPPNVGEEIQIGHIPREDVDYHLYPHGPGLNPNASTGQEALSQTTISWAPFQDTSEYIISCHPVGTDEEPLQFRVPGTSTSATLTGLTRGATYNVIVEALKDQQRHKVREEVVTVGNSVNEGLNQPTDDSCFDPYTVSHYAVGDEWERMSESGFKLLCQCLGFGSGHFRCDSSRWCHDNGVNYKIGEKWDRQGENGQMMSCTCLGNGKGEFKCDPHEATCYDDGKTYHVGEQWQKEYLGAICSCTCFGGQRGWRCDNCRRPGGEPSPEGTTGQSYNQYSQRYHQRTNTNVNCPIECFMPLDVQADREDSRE

Turning to laminin (complex), the Kd in experiment [1] was 0.936 µM; in experiment [2], 0.844 µM. In turn, “fibronectin, P02751 32-2477 (natural protein; ; other documents disagree on this pair)” yielded a Kd in experiment [2] of 1170 µM.
